In US20160362464A1:

Key:
FZD7-CFP [1] = assay: FRET at the plasma membrane of HEK293 cells within 5 min after Wnt5a stimulation (FIG. 4H, I)
FZD7-CFP [2] = assay: FRET at the plasma membrane of starved HEK293 cells; printed: No such interaction was observed in starved cells (FIG. 4H, I)
[3] = target: CFP-Gβ1 with untagged Gγ2; assay: FRET at the plasma membrane of control HeLa cells, before Wnt5a stimulation (FIG. 2J, L)
[4] = target: CFP-Gβ1 with untagged Gγ2; assay: FRET at the plasma membrane of control HeLa cells, within 5 min after Wnt5a stimulation (FIG. 2J, L)

Gαi1-YFP (internally tagged), sequence (P10824 2-354): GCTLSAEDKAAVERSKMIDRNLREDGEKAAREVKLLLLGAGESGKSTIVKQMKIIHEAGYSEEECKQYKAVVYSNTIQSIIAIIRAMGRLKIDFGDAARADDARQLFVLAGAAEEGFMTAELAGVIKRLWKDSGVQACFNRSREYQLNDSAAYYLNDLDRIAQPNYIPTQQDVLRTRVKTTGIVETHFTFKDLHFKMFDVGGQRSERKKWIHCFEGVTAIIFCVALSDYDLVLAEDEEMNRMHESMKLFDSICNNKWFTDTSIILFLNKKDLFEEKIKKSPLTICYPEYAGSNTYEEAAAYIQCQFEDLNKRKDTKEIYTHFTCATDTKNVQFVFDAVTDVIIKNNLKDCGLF
CFP-Gβ1 with untagged Gγ2, sequence (P62873 2-340, chain 1 of 2): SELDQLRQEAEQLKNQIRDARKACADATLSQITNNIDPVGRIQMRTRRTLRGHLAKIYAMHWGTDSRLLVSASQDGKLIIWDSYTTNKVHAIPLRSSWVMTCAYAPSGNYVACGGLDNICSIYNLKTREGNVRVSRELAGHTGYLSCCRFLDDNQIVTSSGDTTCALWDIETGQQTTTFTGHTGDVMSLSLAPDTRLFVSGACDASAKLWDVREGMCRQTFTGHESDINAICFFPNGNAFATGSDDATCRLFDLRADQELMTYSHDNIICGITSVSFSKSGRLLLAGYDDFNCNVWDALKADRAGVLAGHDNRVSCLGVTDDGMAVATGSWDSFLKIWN
CFP-Gβ1 with untagged Gγ2, sequence (P59768 2-68, chain 2 of 2, further chain): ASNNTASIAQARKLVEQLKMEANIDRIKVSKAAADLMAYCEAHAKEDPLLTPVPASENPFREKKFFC

FRET efficiency (FZD7-CFP [1])	FRET efficiency (FZD7-CFP [2])	FRET efficiency [3]	FRET efficiency [4]	Substance
0.25	0.04	–	–	Gαi3-YFP (internally tagged)
–	–	0.36	0.17	Gαi1-YFP (internally tagged)
